Reference: publication PMC2686167, “Structure of Human DNA Polymerase κ Inserting dATP Opposite an 8-OxoG DNA Lesion”

Biological target: T1, DNA polymerase kappa catalytic core (Polκ19-526) (Homo sapiens, UniProt Q9UBT6 19-526)
T1 sequence: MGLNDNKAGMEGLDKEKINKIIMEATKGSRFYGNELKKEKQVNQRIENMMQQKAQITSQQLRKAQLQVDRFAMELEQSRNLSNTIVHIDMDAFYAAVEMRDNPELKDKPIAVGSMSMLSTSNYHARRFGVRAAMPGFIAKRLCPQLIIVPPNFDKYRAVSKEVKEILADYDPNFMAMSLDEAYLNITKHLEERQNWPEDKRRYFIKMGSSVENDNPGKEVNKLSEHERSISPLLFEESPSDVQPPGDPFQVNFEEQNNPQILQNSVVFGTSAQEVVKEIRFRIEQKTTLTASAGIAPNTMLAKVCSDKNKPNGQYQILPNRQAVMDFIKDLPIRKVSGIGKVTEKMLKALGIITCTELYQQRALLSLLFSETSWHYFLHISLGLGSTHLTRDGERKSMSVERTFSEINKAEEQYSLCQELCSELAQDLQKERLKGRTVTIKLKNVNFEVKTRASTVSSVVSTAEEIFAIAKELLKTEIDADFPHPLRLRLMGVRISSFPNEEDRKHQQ
Test: X-ray crystallography (3.2 Å); dATP, Mg2+ (ternary complex); Crystal structure only; cocrystallization conditions not in the material
Conditions: protein: recombinant; tags: N-terminal GST removed with PreScission protease; 5' overhang 5 nt on template; recessed 3' primer end

B1: 13-nt/18-nt primer/template with 8-oxoG (dsDNA)
DNA 1: CCTAGGAGTCCTTCCCCC
DNA 2: GGGGGAAGGACTC
modifications: template G5 = 7,8-dihydro-8-oxoguanine; primer 3' terminal C = dideoxycytidine
B1: binds.
